From patent US20100196361A1, “Method of inhibition of vascular development using an antibody” (DYAX CORP., priority 2003, published 2010)
Numbering of substitutions follows the chain as printed.

B1: M0044B08: Tie1-binding antibody; LC SEQ ID NO:180, HC SEQ ID NO:182 (antibody, V domains shown)
VH: EVQLLESGGGLVQPGGSLRLSCAASGFTFSAYGMGWVRQAPGKGLEWVSVISPSGGQTSYADSVKGRFTISRDNSKNTLYLQMNSLRAEDTALYYCAGGDRYGPLHYWGQGTLVTVSS
VL: QDIQMTQSPSFLSASVGDRVTISCRASQYISIYLNWYQQRPGEAPKLLINAASSLQSGDPSRFSGSGSGTDFTLTINSLQPDDFATYYCQQYKSYPLTFGEGTKVEIK
modifications: Antibody
B2: M0045B03: Tie1-binding antibody; LC SEQ ID NO:260, HC SEQ ID NO:262 (antibody, V domains shown)
VH: EVQLLESGGGLVQPGGSLRLSCAASGFTFSQYPMIWVRQAPGKGLEWVSVISPSGGHTSYADSVKGRFTISRDNSKNTLYLQMNSLRAEDTAVYYCARIQYYGGAFDIWGQGKMVTVSS
VL: QDIQMTQSPDTLSLSPGERATLSCRASQSISRYLAWYQQRPGQAPSLLIYDASERAAGIPARFSGSGSGTDFTLTISSLEPEDFAVYYCQQRGNWPLTFGGGTKVDIR
modifications: Antibody
B3: M0053F04: Tie1-binding antibody; LC SEQ ID NO:392, HC SEQ ID NO:394 (antibody, V domains shown)
VH: EVQLLESGGGLVQPGGSLRLSCAASGFTFSGYGMYWVRQAPGKGLEWVSVISPSGGYTHYADSVKGRFTISRDNSKNTLYLQMNSLRAEDTAVYYCARAYSSGWYLDYWGQGTLVTVSS
VL: QDIQMTQSPATLSLSPGERATLSCRASQSVSSYLAWYQQKPGQAPRLLIYDTSNRATGIPARFSGSGSGTDFTLTISSLEPEDFAVYYCQQRSNWPITFGQGTRLEIK
modifications: Antibody
B4: M0056G08: Tie1-binding antibody; LC SEQ ID NO:568, HC SEQ ID NO:570 (antibody, V domains shown)
VH: EVQLLESGGGLVQPGGSLRLSCAASGFTFSHYGMWWVRQAPGKGLEWVSVISPSGGQTNYADSVKGRFTISRDNSKNTLYLQMNSLRAEDTAVYYCAKGQIHGGNLASWGQGTLVTVSS
VL: QDIQMTQSPGTLSLSPGERATLSCRASQSISSSYLAWYQQKPGQAPRLLLYGTSNRATGIPDRFSGSGSGTDFTLTISRLEPEDFALYYCQQRYKWPLTFGPGTKVDFK
modifications: Antibody
B5: A10: anti-Tie1 antibody clone; variable domains in FIGS. 21A and 21B (antibody, V domains shown)
VH: EVQLLESGGGLVQPGGSLRLSCAASGFTFSNYVMVWVRQAPGKGLEWVSGIYPSGGHTKYADSVKGRFTISRDNSKNTLYLQMNSLRAEDTAVYYCARVNYYDSSGYGPIAPGLDYWGQGTLV
VL: HSAQDIQMTQSPGTLSLSPGERATLFCRASQRVTSNSLAWYQQRPGQAPRLLIYDASTRATGIPDRFSGSGSGRDFTLTISRLEPEDFAVYYCQRYGSSVLYSFGQGTKLEIT
B6: P-B1: anti-Tie1 antibody clone; variable domains in FIGS. 11A and 11B (antibody, V domains shown)
VH: EVQLLESGGGLVQPGGSLRLSCAASGFTFSRYPMVWVRQAPGKGLEWVSVISPSGGQTFYADSVKGRFTISRDNSKNTLYLQMNSLRAEDTAVYYCARGVLTTAFDIWGQGTMVTVSSASTKGPSVFPLAPSSK
VL: QDIQMTQSPSSLSASVGDRVTITCRASQNINSYLNWYQQKPGQAPKLLIYAASNLETAVPSRFSGSGSGTDFTLTISSLQPEDFATYYCQQFNTYPLTFGGG
B7: A2: anti-Tie1 antibody clone; variable domains in FIGS. 20A and 20B (antibody, V domains shown)
VH: EVQLLESGGGLVQPGGSLRLSCAASGFTFSRYTMMWVRQAPGKGLEWVSGIYPSGGVTLYADSVKGRFTISRDNSKNTLYLQMNSLRAEDTAVYYCARVNYYDSSGYGPIAPGLDYWGQGTLVTVSSASTKGPSVFP
VL: HSAQDIQMTQSPGTLSLSPGERATLSCRASRSVIISYVAWYQQKPGQAPRLLIYGASTRATGIPDRFSGSGSGTDFTLTISRLEPEDFAVYFCQLYGRSPRIIFGQGTRLEIK
B8: C7: anti-Tie1 antibody clone; variable domains in FIGS. 25A and 25B (antibody, V domains shown)
VH: EVQLLESGGGLVQPGGSLRLSCAASGFTFSRYVMYWVRQAPGKGLEWVSVIYPSGGATYYADSVKGRFTISRDNSKNTLYLQMNSLRAEDTAVYYCARRGSSGAFDYWGQGTLVTVSSASTKGPSVFP
VL: HSAQSVLTQPASVSGSPGQSITISCTGTSSDIGRYNYASWYQQRPGKSPKLLIYEVSDRPSGVSNRFSGSKSGNTASLIISGLQAEDEADYYCSSYSSTNSLQVVFGGGTKLSVLGQPKAAPSVTLFPPSSEELQANKATLVCL
B9: P-B3: anti-Tie1 antibody clone; variable domains in FIGS. 12A and 12B (antibody, V domains shown)
VH: EVQLLESGGGLVQPGGSLRLSCAASGFTFSRYGMHWVRQAPGKGLEWVSVISPSGGMTYYADSVKGRFTISRDNTKNTLYLQMNSLRAEDTAVYYCARVGATGPFDIWGQGTMVTVSSASTKGPSVFPLAP
VL: QDIQMTQSPATLSLSPGERATLSCRASQSVSTYLAWYQQKPGQAPRLLIYDASNRATGIPGRFSGSGSGTDFTLTISSLEAEDFAVYYCQQRSSWPITFGQG
B10: P-C6: anti-Tie1 antibody clone; variable domains in FIGS. 13A and 13B (antibody, V domains shown)
VH: EVQLLESGGGLVQPGGSLRLSCAASGFTFSHYGMTWVRQAPGKGLEWVSVISPSGGQTGYADSVKGRFTISRDNSKNTLYLQMNSLRAEDTAVYYCAGGGYAAFDYWGQGTLVTVSSASTKGPSVFPLAPSSKSTSGGTAALG
VL: B9 VL with T32S, G61A, A81P, S94N, I97L, Q101G

biological target: Tie1 (Homo sapiens, UniProt P35590); assay: Competition with E3 for binding to Tie1; settings: not given
Sequence (P35590 22-1138): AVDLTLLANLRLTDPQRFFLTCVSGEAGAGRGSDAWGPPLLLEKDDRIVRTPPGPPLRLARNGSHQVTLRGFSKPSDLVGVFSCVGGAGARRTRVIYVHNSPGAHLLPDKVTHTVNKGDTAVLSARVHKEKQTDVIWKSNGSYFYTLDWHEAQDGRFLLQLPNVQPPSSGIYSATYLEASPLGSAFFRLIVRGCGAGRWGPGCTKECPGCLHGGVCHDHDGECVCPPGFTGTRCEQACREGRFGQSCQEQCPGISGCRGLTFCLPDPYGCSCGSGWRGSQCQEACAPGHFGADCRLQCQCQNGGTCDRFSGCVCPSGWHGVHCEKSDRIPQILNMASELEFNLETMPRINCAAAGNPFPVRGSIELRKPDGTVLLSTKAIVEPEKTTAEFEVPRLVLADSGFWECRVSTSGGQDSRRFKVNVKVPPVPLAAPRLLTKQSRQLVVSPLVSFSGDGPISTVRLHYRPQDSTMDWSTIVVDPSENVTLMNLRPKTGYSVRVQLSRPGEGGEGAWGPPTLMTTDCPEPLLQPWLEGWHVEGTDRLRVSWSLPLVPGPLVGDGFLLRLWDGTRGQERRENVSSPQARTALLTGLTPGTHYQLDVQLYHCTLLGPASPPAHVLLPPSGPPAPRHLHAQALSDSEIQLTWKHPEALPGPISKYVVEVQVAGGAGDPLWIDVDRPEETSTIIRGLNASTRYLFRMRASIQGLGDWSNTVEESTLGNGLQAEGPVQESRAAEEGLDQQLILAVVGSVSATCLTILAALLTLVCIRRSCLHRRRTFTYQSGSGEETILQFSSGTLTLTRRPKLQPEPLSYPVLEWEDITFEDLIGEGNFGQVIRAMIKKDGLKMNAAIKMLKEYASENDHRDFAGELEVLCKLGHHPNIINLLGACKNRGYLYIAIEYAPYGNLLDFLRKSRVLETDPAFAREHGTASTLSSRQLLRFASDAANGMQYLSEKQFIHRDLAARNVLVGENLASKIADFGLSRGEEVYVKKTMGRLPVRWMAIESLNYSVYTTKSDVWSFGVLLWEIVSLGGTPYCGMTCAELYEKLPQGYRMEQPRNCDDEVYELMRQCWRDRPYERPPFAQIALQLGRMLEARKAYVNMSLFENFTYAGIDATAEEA

Molecule	competition with E3 for binding to Tie1
B1	competes with E3 for binding to Tie1
B2	competes with E3 for binding to Tie1
B3	competes with E3 for binding to Tie1
B4	competes with E3 for binding to Tie1

biological target: T1, Tie1-EpoR chimeric receptor (UniProt P14753+P35590); assay: BaF3 bioassay (Tie1/EpoR chimeric BaF3 cell assay); type: cell-based, human; settings: 100 ng/ml E3 IgG together with 100 (1:1) or 500 (1:5) ng/ml test antibody
T1 construct: PCR amplified extracellular part of human Tie1 (bp 37-2316 of X60975); expressed in transfected cells
T1 sequence (P35590+P14753 with tags, fused parts or gaps): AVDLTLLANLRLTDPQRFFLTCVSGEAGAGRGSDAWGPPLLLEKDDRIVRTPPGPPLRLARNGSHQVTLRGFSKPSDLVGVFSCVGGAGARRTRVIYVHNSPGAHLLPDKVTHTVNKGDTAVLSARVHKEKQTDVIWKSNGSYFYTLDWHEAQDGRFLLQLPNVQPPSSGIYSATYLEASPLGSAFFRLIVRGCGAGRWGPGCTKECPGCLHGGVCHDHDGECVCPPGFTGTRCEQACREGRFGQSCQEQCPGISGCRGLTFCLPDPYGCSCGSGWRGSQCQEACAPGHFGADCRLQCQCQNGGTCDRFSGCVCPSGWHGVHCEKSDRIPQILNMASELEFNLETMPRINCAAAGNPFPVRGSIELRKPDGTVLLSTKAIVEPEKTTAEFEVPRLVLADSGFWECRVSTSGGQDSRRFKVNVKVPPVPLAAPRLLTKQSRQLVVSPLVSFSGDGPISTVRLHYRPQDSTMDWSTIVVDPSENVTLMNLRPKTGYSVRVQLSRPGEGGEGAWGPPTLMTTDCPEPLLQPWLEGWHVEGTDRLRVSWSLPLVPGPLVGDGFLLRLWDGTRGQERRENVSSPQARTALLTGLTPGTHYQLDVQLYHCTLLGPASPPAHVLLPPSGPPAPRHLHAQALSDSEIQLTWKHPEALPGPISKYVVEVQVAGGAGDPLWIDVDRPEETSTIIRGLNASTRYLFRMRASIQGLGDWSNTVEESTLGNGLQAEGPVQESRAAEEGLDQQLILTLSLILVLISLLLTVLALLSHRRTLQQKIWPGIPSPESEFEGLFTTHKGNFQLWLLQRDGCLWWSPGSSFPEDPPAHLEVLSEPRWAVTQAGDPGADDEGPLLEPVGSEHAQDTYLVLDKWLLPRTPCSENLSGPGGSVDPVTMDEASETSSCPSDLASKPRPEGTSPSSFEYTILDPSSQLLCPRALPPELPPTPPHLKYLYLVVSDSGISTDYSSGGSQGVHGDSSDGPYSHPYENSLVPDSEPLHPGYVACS
Text: BaF3 bioassay. To generate Tie1-EpoR expressing BaF3 cells for the bioassay, BaF3 pre-B cells were stably transfected with a nucleic acid that expresses chimeric receptor containing the extracellular domain of human Tie1 fused with the transmembrane and cytoplasmic domains of the mouse erythropoietin receptor. The nucleic acid used was a Tie1-EpoR chimeric cDNA in a pEF-BOS expression vector. The nucleic acid encoding the chimeric receptor was constructed by cloning the PCR amplified extracellular part of human Tie1 (bp 37-2316 of X60975) as EcoRI-BglII fragment into mEpoR-pcDNA vector. The cDNA encoding for the chimeric receptor consisting of the extracellular part of Tie1 fused with the transmembrane and intracellular domains of EpoR was subcloned into the pEF-BOS expression vector. Vector was linearized and co-transfected into BaF3 cells with pcDNA3.1(+) Zeo vector (Invitrogen). Stable cell pools were generated by selection with 250 μg/ml Zeocin. The expression of Tie1/EpoR fusion protein in several clones was analyzed by Western blotting with an antibody against EpoR.
To perform the assays, BaF3 cells expressing the Tie1-EpoR chimera were split in 96-well microtiter plates at 50 000 cells/well in the presence of the indicated concentrations of anti-Tie1 antibodies. The E3 antibody used in this study was the germ-lined E3 antibody (DX-2220). As controls, Zeocin resistant pools not expressing the Tie1-EpoR were used. After 48 h, the viability of the cells was determined by adding MTT (3-(4,5-dimethylthiazol-2-yl)-2,5-diphenyl tetrazolium bromide (Sigma), 0.5 mg/ml), followed by further 2 h of culture, addition of an equal volume of cell lysis solution (10% SDS, 10 mM HCl) and incubation overnight at 37° C. Absorbance was measured at 540 nm.
Stimulation and inhibition of Tie1 in Tie1-EpoR transfected BaF3 cells and human primary endothelial cells. Although no ligand for Tie1 has been identified, we used the following efficient screening method for Tie1-binding proteins. Interleukin-3 dependent pre-B-lymphocyte (BaF3) cells were transfected with a construct that expresses a Tie1-EpoR fusion protein. Since BaF3 cells are IL-3 dependent, they die unless IL-3 is provided. However, Tie-EpoR receptor expressing BaF3 cells can survive and proliferate if the medium contains a Tie1-binding protein, either a natural ligand or an artificial mimetic. Cell survival can be quantitated, e.g., by colorimetric MTT-assay, which measures mitochondrial activity.
To determine if any of the other monoclonal antibodies tested inhibit the survival effect of E3 IgG in Tie1-EpoR BaF3 assay, antibodies were studied in combination with E3 IgG. A concentration of 100 ng/ml of E3 IgG together with 100 (1:1) or 500 (1:5) ng/ml of the other antibodies were used and the viability of Tie1-EpoR cells was measured.

Molecule	effect on the survival effect of E3 IgG in Tie1-EpoR BaF3 assay
B5	inhibited the viability effect of E3 IgG to some extent
B6	inhibited the viability effect of E3 IgG to some extent
B7	inhibited the viability effect of E3 IgG to some extent
B8	promoted the survival of Tie1/EpoR BaF3 cells in combination with E3 IgG
B9	inhibited the viability effect of E3 IgG to some extent
B10	inhibited the viability effect of E3 IgG to some extent
